Ends that are not written are not given here. Peptide text beside a SMILES is read from it. * marks the point of attachment. Biotin = O=C1N[C@H]2[C@H](CS[C@H]2CCCCC(=O)*)N1
Columns and labels:
Assay type in all cases: binding
[1] = target: T1, PDZ protein (GST-PDZ fusion) (Homo sapiens, UniProt Q02410); assay: G' assay (10 uM PL peptide), results of TABLE 7 and TABLE 12; settings: PDZ Mint 1, PDZ Domain 1, 2
T1 construct: made in house; host or cells: E. coli (DH5alpha, BL21 or JM109)
T1 sequence (Q02410 1-837): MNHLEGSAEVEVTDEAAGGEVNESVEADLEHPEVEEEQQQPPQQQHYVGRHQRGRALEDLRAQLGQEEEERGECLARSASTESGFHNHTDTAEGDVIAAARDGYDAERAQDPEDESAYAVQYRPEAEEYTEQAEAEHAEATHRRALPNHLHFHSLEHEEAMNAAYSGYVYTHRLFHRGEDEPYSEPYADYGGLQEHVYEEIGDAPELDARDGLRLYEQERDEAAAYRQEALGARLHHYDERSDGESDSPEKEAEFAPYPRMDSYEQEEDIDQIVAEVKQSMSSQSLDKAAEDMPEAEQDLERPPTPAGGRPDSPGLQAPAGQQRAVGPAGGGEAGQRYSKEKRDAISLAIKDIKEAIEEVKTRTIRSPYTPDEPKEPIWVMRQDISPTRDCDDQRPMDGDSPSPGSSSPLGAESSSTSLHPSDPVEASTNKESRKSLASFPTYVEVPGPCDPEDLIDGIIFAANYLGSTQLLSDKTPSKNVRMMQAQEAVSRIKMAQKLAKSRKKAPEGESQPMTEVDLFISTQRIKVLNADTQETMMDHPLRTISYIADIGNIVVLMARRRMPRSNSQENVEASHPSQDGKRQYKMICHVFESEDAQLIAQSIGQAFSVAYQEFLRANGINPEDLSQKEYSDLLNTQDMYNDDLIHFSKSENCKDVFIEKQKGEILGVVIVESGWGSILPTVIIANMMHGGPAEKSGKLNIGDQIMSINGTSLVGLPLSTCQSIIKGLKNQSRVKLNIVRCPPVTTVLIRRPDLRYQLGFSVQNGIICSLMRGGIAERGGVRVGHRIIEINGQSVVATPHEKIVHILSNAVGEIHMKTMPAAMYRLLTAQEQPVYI
How it was run: (§1)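 Biotin-PL peptide (N-term label), 10 uM vs GST-PDZ; protein 5 ug/ml by default. A450 nm binned: 1 = 0-1, 2 = 1-2, 3 = 2-3, 4 = 3-4, 5 = >4 on >2 repeats, 0 = no binding.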

[2] = target: T2, PDZ protein (GST-PDZ fusion) (Homo sapiens, UniProt P55196); assay: as above; settings: PDZ AF6, PDZ Domain 1
T2 construct: made in house; host or cells: E. coli (DH5alpha, BL21 or JM109)
How it was run: as §1

[3] = target: T3, PDZ protein (GST-PDZ fusion) (Homo sapiens, UniProt Q5TCQ9); assay: as above
T3 construct: made in house; host or cells: E. coli (DH5alpha, BL21 or JM109)
T3 sequence (Q5TCQ9 1-1481): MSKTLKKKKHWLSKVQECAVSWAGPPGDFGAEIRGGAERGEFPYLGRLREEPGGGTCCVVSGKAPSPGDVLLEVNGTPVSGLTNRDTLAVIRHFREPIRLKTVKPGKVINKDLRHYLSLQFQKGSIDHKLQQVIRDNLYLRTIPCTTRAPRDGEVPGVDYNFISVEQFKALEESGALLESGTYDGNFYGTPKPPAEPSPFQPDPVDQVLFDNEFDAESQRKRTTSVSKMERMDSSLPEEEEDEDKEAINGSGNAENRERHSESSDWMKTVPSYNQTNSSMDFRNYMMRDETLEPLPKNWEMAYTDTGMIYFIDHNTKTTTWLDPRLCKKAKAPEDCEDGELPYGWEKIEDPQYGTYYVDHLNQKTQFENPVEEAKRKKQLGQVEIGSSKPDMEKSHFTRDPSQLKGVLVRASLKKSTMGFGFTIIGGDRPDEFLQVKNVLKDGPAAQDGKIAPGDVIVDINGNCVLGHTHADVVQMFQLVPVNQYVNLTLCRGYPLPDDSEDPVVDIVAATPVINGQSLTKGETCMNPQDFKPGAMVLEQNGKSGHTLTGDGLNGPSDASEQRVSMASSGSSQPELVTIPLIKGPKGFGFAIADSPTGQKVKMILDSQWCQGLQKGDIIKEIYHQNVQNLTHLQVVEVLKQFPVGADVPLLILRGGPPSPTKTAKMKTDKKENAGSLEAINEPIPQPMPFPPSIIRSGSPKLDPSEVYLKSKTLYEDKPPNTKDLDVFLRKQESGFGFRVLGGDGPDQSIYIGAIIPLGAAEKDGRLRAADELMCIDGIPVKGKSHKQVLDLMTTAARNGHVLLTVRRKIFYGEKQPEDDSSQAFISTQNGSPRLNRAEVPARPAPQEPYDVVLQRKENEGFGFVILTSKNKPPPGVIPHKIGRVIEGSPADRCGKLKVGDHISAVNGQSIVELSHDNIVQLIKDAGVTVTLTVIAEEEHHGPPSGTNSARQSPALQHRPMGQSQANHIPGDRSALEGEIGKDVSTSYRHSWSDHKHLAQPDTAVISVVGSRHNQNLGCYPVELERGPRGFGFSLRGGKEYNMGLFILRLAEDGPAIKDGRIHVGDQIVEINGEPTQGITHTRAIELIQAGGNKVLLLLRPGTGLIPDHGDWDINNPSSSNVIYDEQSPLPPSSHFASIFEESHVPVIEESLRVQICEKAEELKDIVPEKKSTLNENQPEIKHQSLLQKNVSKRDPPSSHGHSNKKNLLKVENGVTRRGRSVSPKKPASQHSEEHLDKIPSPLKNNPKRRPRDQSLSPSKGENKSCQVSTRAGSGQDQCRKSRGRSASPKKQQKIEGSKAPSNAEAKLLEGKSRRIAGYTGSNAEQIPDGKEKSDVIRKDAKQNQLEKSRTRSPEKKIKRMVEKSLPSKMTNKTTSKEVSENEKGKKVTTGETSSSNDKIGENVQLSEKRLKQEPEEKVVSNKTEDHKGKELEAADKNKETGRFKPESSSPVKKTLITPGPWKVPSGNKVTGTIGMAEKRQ
How it was run: as §1

[4] = target: T4, PDZ protein (GST-PDZ fusion) (Homo sapiens, UniProt Q12923); assay: as above
T4 construct: made in house; host or cells: E. coli (DH5alpha, BL21 or JM109)
T4 sequence (Q12923 whole entry, the tested form may be a part): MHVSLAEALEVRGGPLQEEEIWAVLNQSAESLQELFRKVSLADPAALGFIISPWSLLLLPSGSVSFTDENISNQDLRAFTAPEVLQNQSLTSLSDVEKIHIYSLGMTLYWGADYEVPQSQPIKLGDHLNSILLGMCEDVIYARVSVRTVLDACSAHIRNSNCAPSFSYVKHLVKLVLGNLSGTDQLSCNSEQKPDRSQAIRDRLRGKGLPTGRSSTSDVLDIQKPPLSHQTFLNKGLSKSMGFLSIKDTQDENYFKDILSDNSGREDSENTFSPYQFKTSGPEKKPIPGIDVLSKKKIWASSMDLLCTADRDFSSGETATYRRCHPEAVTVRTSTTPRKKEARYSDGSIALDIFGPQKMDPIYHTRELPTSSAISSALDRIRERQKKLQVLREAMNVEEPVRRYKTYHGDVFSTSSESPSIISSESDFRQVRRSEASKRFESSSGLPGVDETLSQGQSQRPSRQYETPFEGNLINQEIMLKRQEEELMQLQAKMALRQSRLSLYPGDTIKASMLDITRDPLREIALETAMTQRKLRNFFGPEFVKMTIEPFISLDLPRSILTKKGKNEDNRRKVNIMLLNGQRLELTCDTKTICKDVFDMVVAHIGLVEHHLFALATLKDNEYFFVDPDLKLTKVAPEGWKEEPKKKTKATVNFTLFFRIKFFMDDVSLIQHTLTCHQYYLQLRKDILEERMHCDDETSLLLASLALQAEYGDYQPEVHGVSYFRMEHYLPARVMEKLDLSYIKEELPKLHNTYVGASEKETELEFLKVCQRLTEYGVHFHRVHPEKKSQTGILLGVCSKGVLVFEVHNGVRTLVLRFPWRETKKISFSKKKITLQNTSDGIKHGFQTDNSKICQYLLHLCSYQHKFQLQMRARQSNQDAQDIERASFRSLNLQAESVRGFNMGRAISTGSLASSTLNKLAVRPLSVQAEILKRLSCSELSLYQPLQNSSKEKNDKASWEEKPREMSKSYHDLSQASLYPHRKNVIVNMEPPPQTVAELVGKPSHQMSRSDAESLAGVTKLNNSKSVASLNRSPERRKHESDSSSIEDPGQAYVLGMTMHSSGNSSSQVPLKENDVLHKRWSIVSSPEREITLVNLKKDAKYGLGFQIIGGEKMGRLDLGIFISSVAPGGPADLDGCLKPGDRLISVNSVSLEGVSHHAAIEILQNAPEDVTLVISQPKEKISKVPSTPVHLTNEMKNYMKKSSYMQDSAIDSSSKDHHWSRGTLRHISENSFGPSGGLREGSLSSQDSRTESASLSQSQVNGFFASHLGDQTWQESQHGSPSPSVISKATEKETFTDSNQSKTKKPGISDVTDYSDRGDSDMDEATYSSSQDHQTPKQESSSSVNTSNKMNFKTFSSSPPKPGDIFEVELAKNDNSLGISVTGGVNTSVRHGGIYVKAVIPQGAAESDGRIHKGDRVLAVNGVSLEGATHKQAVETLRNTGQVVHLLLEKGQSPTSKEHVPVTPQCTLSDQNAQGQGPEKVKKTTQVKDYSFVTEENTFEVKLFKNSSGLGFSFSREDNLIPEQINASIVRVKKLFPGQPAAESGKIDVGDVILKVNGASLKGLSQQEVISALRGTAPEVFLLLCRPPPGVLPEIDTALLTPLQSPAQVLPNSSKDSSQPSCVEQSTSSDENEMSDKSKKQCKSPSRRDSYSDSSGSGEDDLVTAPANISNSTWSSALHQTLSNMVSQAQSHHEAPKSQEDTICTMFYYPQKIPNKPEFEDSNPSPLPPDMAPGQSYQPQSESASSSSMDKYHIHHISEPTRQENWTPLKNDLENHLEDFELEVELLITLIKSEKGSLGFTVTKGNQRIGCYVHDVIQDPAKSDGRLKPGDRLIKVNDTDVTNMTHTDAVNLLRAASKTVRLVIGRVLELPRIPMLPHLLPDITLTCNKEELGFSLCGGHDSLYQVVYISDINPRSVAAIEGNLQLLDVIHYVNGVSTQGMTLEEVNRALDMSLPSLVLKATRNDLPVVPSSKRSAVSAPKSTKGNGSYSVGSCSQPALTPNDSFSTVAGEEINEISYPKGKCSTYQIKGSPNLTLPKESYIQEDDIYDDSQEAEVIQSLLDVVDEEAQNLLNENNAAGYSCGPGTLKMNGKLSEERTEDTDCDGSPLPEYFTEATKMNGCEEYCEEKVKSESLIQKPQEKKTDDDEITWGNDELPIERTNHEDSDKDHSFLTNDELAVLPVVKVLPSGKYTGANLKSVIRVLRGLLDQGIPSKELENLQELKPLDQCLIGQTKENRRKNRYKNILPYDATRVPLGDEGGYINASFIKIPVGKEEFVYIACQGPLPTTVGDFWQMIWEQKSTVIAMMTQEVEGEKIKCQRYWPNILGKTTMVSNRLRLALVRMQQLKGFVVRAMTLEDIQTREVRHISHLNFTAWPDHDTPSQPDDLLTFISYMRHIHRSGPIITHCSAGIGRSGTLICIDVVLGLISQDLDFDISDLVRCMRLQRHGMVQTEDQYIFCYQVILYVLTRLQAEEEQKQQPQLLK
How it was run: as §1

[5] = target: T5, PDZ protein (GST-PDZ fusion) (Homo sapiens, UniProt Q8NI35); assay: as above; settings: PDZ INADL, PDZ Domain 3
T5 construct: made in house; host or cells: E. coli (DH5alpha, BL21 or JM109)
How it was run: as §1

[6] = target: T6, PDZ-domain polypeptide (GST/PDZ fusion protein) (Homo sapiens, UniProt Q5TCQ9); assay: Apparent affinity (Kd) by titration of PL peptide in the G assay; settings: PDZ KIAA1634, PDZ Domain 2; read-out: Peptide Optimal Conc (non-zero value: Kd by titration of the PL peptide)
T6 construct: made in house; host or cells: E. coli (DH5alpha, BL21 or JM109)
T6 sequence (Q5TCQ9 1-1481): T3 sequence (Q5TCQ9 1-1481)
Protocol: (§2) The third column labeled “Peptide Optimal Concentration” in the tables is a number reflective of the binding interaction between the PL protein and PDZ protein. […] The column labeled “Protein Optimal Concentration” refers to the protein concentration used to assay PL interaction (in ug/ml); a ‘0’ is indicative of 5 ug/ml protein concentration; any other value represents the concentration (in ug/ml) used to determine the dissociation constant for a given interaction.
(§3) The “A” and “G” assays described supra can be used to determine the “apparent affinity” of binding of a PDZ ligand peptide to a PDZ-domain polypeptide. Apparent affinity is determined based on the concentration of one molecule required to saturate the binding of a second molecule (e.g., the binding of a ligand to a receptor). Two particularly useful approaches for quantitation of apparent affinity of PDZ-ligand binding are provided infra.
(§4) In cases where satisfying the above criteria proves difficult, an alternative approach (infra) can be used.
(§5) (1) A fixed concentration of a PDZ-domain polypeptide and increasing concentrations of a labeled PL peptide (labeled with, for example, biotin or fluorescein, see TABLE 9 for representative peptide amino acid sequences) are mixed together in solution and allowed to react. In certain assays, peptide concentrations are 0.1 uM, 1 uM, 10 uM, 100 uM, 1 mM. In other assays, appropriate reaction times can range from 10 minutes to 2 days at temperatures ranging from 4° C. to 37° C. In some instances, the identical reaction can also be carried out using a non-PDZ domain-containing protein as a control (e.g., if the PDZ-domain polypeptide is fusion protein, the fusion partner can be used).
(§6) (2) PDZ-ligand complexes can be separated from unbound labeled peptide using a variety of methods known in the art.
(§7) (3) The PDZ-ligand complex is detected based on presence of the label on the peptide ligand using a variety of methods and detectors known to one of skill in the art. For example, if the label is fluorescein and the separation is achieved using HPSEC, an in-line fluorescence detector can be used. The binding can also be detected as described supra for the G assay.

[7] = target: T7, PDZ-domain polypeptide (GST/PDZ fusion protein) (Homo sapiens, UniProt Q12923); assay: as above; settings: PDZ PTPL-1, PDZ Domain 2; read-out: Peptide Optimal Conc (non-zero value: Kd by titration of the PL peptide)
T7 construct: made in house; host or cells: E. coli (DH5alpha, BL21 or JM109)
T7 sequence (Q12923 whole entry, the tested form may be a part): as above
Protocol: as §2, §3, §4, §5, §6, §7

[8] = target: PDZ-domain polypeptide (GST/PDZ fusion protein); assay: as above; settings: PDZ TAX IP2, PDZ Domain 1; read-out: Peptide Optimal Conc (Kd by titration of the PL peptide)
Protocol: as §2, §3, §4, §5, §6, §7

[9] = target: T8, PDZ protein (GST-PDZ fusion) (Homo sapiens, UniProt O14908); assay: G' assay (10 uM PL peptide), results of TABLE 7 and TABLE 12; settings: PDZ TAX IP2, PDZ Domain 1
T8 construct: made in house; host or cells: E. coli (DH5alpha, BL21 or JM109)
T8 sequence (O14908 1-333): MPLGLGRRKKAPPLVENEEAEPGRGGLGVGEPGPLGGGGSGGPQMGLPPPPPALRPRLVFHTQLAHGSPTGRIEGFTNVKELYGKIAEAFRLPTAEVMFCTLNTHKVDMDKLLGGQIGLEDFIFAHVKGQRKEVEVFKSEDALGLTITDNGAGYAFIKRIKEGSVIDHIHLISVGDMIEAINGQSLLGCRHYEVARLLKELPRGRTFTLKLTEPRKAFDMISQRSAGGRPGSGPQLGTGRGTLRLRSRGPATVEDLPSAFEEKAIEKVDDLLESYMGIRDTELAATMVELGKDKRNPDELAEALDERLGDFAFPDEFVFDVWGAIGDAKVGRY
How it was run: as §1

[10] = target: T9, PDZ protein (GST-PDZ fusion) (Homo sapiens, UniProt Q6P0Q8); assay: as above
T9 construct: made in house; host or cells: E. coli (DH5alpha, BL21 or JM109)
T9 sequence (Q6P0Q8 whole entry, the tested form may be a part): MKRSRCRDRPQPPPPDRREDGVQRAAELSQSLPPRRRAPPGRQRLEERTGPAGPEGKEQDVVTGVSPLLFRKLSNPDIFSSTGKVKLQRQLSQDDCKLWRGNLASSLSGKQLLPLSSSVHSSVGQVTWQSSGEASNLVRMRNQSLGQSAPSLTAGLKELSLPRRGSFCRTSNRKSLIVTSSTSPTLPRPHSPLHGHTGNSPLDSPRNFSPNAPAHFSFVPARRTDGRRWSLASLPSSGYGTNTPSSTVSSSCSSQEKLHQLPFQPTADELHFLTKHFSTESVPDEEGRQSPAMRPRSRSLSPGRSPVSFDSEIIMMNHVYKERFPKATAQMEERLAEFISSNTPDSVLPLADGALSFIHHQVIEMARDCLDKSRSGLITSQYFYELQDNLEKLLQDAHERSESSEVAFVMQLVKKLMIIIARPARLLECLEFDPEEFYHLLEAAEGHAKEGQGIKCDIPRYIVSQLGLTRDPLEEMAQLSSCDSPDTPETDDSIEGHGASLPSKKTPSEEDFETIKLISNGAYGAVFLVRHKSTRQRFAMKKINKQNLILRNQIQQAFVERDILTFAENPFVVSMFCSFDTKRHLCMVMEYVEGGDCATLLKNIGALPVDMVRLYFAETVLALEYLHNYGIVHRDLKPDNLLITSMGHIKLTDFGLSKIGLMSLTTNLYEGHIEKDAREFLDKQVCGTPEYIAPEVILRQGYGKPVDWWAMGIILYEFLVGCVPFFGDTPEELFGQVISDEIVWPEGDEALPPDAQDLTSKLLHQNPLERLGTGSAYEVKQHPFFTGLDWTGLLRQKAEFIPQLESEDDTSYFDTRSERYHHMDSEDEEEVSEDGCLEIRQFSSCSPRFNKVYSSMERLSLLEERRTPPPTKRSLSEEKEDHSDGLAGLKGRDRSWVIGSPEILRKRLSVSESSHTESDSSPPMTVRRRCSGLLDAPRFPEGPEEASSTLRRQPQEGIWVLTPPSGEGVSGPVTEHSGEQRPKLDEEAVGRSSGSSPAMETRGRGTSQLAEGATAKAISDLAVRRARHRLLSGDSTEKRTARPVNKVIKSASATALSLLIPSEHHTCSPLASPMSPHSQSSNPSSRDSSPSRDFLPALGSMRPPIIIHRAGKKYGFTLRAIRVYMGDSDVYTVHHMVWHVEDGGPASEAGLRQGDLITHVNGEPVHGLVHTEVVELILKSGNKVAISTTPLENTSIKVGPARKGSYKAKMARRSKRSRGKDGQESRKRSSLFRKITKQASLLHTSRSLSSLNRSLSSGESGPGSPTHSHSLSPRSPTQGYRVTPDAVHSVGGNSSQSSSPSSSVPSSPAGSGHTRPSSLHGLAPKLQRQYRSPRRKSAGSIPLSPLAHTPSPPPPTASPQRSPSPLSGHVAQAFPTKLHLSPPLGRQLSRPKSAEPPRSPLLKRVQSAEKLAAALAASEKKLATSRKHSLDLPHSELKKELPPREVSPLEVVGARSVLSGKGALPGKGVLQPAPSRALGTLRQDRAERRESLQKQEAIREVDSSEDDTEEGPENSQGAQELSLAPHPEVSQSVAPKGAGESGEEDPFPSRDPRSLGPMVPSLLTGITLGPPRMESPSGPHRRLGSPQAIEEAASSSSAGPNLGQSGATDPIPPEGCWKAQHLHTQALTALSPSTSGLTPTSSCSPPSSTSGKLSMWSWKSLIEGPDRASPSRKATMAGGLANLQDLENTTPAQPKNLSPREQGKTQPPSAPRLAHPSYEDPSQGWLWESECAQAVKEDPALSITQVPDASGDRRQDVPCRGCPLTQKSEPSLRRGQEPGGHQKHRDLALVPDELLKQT
How it was run: as §1

## SSPDSSYQGKGFVMSRAMYV (Biotin-SSPDSSYQGKGFVMSRAMYV) [Nectin 2]
[1]
  Classification: 2 (A450 nm 1-2)
[2]
  Classification: 2 (A450 nm 1-2)
[3]; PDZ KIAA1634, PDZ Domain 1
  Classification: 1 (A450 nm 0-1)

## YSQPSARSEGEFKQTSSFLV (Biotin-YSQPSARSEGEFKQTSSFLV) [JAM (junctional adhesion molecule)]
[4]; PDZ PTPL-1, PDZ Domain 4
  Classification: 1 (A450 nm 0-1)
[2]
  Classification: 1 (A450 nm 0-1)
[5]
  Classification: 1 (A450 nm 0-1)

## CC[C@H](C)[C@H](NC(=O)CCCC[C@@H]1SC[C@@H]2NC(=O)N[C@@H]21)C(=O)N[C@H](C(=O)N[C@H](C(=O)N[C@H](C(=O)N[C@H](C(=O)N[C@H](C(=O)N[C@@H](CCSC)C(=O)N[C@H](C(=O)N[C@H](C(=O)N[C@@H](CC(N)=O)C(=O)N[C@H](C(=O)N[C@@H](CC(=O)O)C(=O)N[C@@H](Cc1ccccc1)C(=O)N1CCC[C@H]1C(=O)N1CCC[C@H]1C(=O)N[C@@H](CCCCN)C(=O)N[C@@H](CCC(=O)O)C(=O)N[C@@H](CO)C(=O)N[C@@H](CO)C(=O)N[C@@H](CC(C)C)C(=O)O)C(C)C)[C@@H](C)O)C(C)C)[C@@H](C)O)C(C)C)C(C)C)[C@@H](C)O)C(C)C [ActRIIA] (Biotin-IVTVVTMVTNVDFPPKESSL-OH; C-terminus assumed)
[6]
  Kd: 5 µM
[7]
  Kd: 5 µM
[4]; PDZ PTPL-1, PDZ Domain 2
  Classification: 3 (A450 nm 2-3)
[3]; PDZ KIAA1634, PDZ Domain 2
  Classification: 2 (A450 nm 1-2)

## AKT-1 (Biotin-VDSERRPHFPQFSYSASSTA)
[8]
  Kd: 2.5 µM
[9]
  Classification: 4 (A450 nm 3-4)
[10]; PDZ KIAA0807(S), PDZ Domain 1
  Classification: 1 (A450 nm 0-1)
[10]; PDZ KIAA807, PDZ Domain not given
  Classification: 1 (A450 nm 0-1)
